Laboratory results as given in publication PMC9239103, “System-Wide Analysis of the GATC-Binding Nucleoid-Associated Protein Gbn and Its Impact on Streptomyces Development”.

B1: p1839_50Single_strong (++, GATCWT) (dsDNA)
DNA 1: CTCGACGCCGTCCGGAAGCAGAATGATCCGTTCCGGCTGGAGCGCCTCGA
DNA 2: TCGAGGCGCTCCAGCCGGAACGGATCATTCTGCTTCCGGACGGCGTCGAG
B2: p1839_50Quadruple (dsDNA)
DNA 1: GATGGCGGATCACGGATCGGCCGAATGATCCATAACCAGTGGATCATCCA
DNA 2: TGGATGATCCACTGGTTATGGATCATTCGGCCGATCCGTGATCCGCCATC

Key:
Gbn (SCO1839) [1] = target: T1, Gbn (SCO1839) (Streptomyces coelicolor A3(2) M145, UniProt Q9RJ29 1-73); assay: EMSA; half-binding concentration reduced by more than one-third versus N2; 5 nM DNA; EMSA: 10 mM Tris-HCl pH 7.9, 0.1 mM EDTA, 50 mM KCl, 30 C 15 min, 5% PAGE, ethidium bromide; TPM: 10 mM Tris-HCl pH 8.0, 0.1 mM EDTA, 50 mM KCl, 0.5% acetylated BSA; details: protein: recombinant; tags: His6 (pET28a, pGWS1286; printed as both His6-Gbn and Gbn-His6); blunt
T1 sequence: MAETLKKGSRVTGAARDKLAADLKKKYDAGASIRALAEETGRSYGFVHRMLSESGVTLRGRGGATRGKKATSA

Gbn (SCO1839) [2] = target: T1, Gbn (SCO1839); assay: EMSA; three binding events seen for four motifs; 7.5 nM DNA; EMSA: 10 mM Tris-HCl pH 7.9, 0.1 mM EDTA, 50 mM KCl, 30 C 15 min, 5% PAGE, ethidium bromide; TPM: 10 mM Tris-HCl pH 8.0, 0.1 mM EDTA, 50 mM KCl, 0.5% acetylated BSA; details: protein: recombinant; tags: His6 (pET28a, pGWS1286; printed as both His6-Gbn and Gbn-His6); blunt

Binder	binding result (Gbn (SCO1839) [1])	binding result (Gbn (SCO1839) [2])
B1	binds	
B2		binds
